Experimental findings from patent US20230099646A1 (published 2023) are described below.

This experiment addresses T1, cynomolgus monkey CD19 (cCD19) (cynomolgus monkey).
T1 construct: Expressed on transiently transfected 293 cells
T1 chain: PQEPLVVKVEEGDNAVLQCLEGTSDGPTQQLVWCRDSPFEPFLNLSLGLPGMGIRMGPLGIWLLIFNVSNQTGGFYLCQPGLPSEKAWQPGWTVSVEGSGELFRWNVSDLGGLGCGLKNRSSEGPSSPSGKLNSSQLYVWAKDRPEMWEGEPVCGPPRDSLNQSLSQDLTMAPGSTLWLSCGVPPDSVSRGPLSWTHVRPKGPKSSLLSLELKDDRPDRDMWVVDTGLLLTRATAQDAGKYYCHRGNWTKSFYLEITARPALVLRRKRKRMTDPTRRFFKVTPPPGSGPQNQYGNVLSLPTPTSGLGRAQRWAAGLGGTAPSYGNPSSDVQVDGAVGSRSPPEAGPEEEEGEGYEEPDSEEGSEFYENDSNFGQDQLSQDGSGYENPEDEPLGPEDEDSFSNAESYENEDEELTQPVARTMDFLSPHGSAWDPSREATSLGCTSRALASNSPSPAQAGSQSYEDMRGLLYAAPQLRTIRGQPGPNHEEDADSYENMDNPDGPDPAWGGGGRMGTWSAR
Briefly: flow cytometry on transfected 293 cells. For orientation: A flow cytometer gives signals particle by particle.

Procedure: In brief, first, the expression of CD19 protein was identified.
Binding to GFP-positive cells was analyzed on the basis of mean fluorescence intensity (MFI).

B1: CD19_12.18 antibody (scFv, V domains shown)
VH: AVTLDESGGGLQTPGGALSLVCKASGFTFSSYDMGWVRQAPGKGLEFVAGIDDDGRYTSYGSAVDGRATISRDNGQSTVRLQLNNLRAEDTATYYCTRGNAGWIDAWGHGTEVIVSS
VL: LTQPSSVSANPGETVKITCSGGYSSYYGWYQQKSPGSAPVTLIYESNKRPSDIPSRFSGSASGSTATLTITGVQVEDEAVYYCGGWDSTHAGIFGAGTTLTVLG
notes: Chicken-derived antibody, tested as an Fc fusion (Anti-CD19 scFv-Fc) made in FreeStyle 293F cells; also called CD19_1218-Fc; Anti-CD19 scFv-Fc
Take B1: the binding result is reported as “no binding”.
